Experiments:
[1] = molecular target: human PTH-1 receptor (human) (UniProt Q03431); assay: cell-based or functional assay
[2] = molecular target: human PTH-1 receptor (human) (UniProt Q03431); assay: radioligand binding on HKRK B7 cells, no competitor, 2-8° C. for 6 hr
[3] = molecular target: human PTH-1 receptor (human) (UniProt Q03431); assay: competition with ^125I-[Nle^8,21, Tyr^34]rat PTH-(1-34) on HKRK B7 cells

human PTH-1 receptor (human), sequence (Q03431 27-593): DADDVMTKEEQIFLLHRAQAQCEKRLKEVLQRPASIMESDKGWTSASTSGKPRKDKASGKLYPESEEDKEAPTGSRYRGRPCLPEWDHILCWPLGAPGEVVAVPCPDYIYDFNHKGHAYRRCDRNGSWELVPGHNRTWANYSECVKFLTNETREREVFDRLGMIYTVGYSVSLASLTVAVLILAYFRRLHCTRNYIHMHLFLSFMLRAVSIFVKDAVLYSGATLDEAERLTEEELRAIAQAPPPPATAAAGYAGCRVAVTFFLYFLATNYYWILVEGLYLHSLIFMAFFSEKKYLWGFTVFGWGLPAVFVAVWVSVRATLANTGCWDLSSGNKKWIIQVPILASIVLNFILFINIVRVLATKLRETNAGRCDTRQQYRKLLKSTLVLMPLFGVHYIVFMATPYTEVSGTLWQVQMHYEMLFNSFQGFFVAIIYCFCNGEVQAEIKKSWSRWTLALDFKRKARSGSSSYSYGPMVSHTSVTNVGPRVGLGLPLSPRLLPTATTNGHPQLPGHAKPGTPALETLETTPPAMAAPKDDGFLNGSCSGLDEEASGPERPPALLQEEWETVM

desamino-[Ala^1]hPTH-(1-34) (from UniProt P01270 32-65) (peptide)
PLC Activity (% Basal) at 1000 nM [1]: 106 % Basal

^125I-[Nle^8,21, Tyr^34]rat PTH-(1-34) (from UniProt P04089 32-65) (peptide)
cell-associated radioactivity (binding), basal [2]: 25500 cpm/well

hPTH-(2-34) (from UniProt P01270 33-65) (peptide)
PLC Activity (% Basal) at 1000 nM [1]: 88 % Basal

[Tyr^0]hPTH-(1-34) (from UniProt P01270 32-65) (peptide)
PLC activity at 1000 nM peptide (percent of basal) [1]: 105

hPTHrP(1-36) (from UniProt P12272 37-72) (peptide)
PLC activation at 1000 nM peptide (percent of basal) [1]: 178

desamino-hPTHrP(1-36) (from UniProt P12272 37-72) (peptide)
PLC activation at 1000 nM peptide (percent of basal) [1]: 101

hPTH-(1-34) (from UniProt P01270 32-65) (peptide)
Cyclic AMP accumulation (% Maximum) at 0.01 nM [1]: 1.7 % Maximum | Cyclic AMP accumulation (% Maximum) at 0.1 nM [1]: 14 % Maximum | Cyclic AMP accumulation (% Maximum) at 1 nM [1]: 45 % Maximum | Cyclic AMP accumulation (% Maximum) at 10 nM [1]: 93 % Maximum | Cyclic AMP accumulation (% Maximum) at 100 nM [1]: 96 % Maximum | Cyclic AMP accumulation (% Maximum) at 1000 nM [1]: 100 % Maximum | EC50 of PLC activation [1]: 30 nM | IP3 Formation (% Maximum) at 1000 nM [1]: 87 % Maximum | IP3 Formation (% Maximum) at 10000 nM [1]: 100 % Maximum | IP3 formation at maximal concentrations of hPTH-(1-34) [1]: 1910 cpm/well | PLC Activity (% Basal) at 1000 nM [1]: 854 % Basal | cAMP accumulation at maximal concentrations of hPTH-(1-34) (pmoles/well/15 min) [1]: 207 | cell-associated radioactivity (binding) in the presence of maximal concentrations of hPTH-(1-34) [3]: 956 cpm/well

desamino-[Gly^1]hPTH-(1-34) (from UniProt P01270 32-65) (peptide)
PLC Activity (% Basal) at 1000 nM [1]: 108 % Basal
